The text below walks through data of publication PMC7966918 (Cell Research, 2021).

Assay [1] has as its target T1, SARS-CoV-2 RBD (residues Arg319–Phe541) (SARS-CoV-2, UniProt P0DTC2). Briefly: SPR. As to conditions: both partners purified.
In assay [2] the target is T1, SARS-CoV-2 RBD (residues Arg319–Phe541). Briefly: cell-based or functional assay.

B1: P2B-1A1 (full-length IgG) (antibody, V domains shown)
VH: QVQLQESGPGLVKPSETLSLTCTVSGGSISSYYWSWIRQPPGKGLEWIGYIYYSGSTNYNPSLKSRVTISVDTSKKQFSLKLSSVTAADTAVYYCARLERDWPLDAFDIWGQGTMVTVSS
VL: QSALTQPASVSGSPGQSITISCTGTSSDVGGYNYVSWYQQHPGKAPKFMIYDVSKRPSGVSNRFSGSKSGNTASLTISGLQAEDEADYYCSSYTSNNTFAFGGGTKLTVL
With B1, the Kd in assay [1] is 27 nM. Also, in assay [2], the other was -9.7%.

B2: P5A-2G9 (full-length IgG) (antibody, V domains shown)
VH: QVQLVESGGGVVQPGRSLRLSCAASGFTFSSYGMHWVRQAPGKGLEWVAVIWYDGSNKYYADSVKGRFTISRDNSKNTLYLQMNSLRAEDTAVYYCARWFHTGGYFDYWGQGTLVTVSS
VL: QPVLTQPPSSSASPGESARLTCTLPSDINVSSYNIYWYQQKPGSPPRYLLYYYSDSDKGQGSGVPSRFSGSKDASANTGILLISGLQSEDEADYYCMIWPSNALYVFGTGTKVTVL
As for B2, the Kd in assay [1] came to 6.98 nM. Besides, the other in assay [2] worked out at 84.9%.

B3: P5A-1B6 (full-length IgG) (antibody, V domains shown)
VH: QVQLVESGGGVVQPGRSLRLSCAASGFTFSSYAMHWVRQAPGKGLEWVAVISYDGSNKYYADSVKGRFTISRDNSKNTLYLQMNSLRAEDTAVYYCARDGQAITMVQGVIGPPFDYWGQGTLVTVSS
VL: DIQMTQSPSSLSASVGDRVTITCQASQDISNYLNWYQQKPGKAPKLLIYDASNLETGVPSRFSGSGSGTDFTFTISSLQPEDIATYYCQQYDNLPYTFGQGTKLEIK
Regarding B3, the Kd in assay [1] came out at 1.01 nM. Besides, the other in assay [2] is 76%.

B4: P5A-1B9 (full-length IgG) (antibody, V domains shown)
VH: QVQLQESGPGLVKPSETLSLTCTVSGGSISSYYWSWIRQPPGKGLEWIGYISYSGSTNYNPSLKSRVTISLDTSKNQFSLKLSSVTAADTAVYYCASNGQYYDILTGQPPDYWYFDLWGRGTLVTVSS
VL: not shown
Turning to B4, binding in assay [1] was characterised by a dissociation constant (Kd) of 0.75 nM. Further, the other in assay [2] turned out to be 43.8%.

B5: P2B-1A10 (full-length IgG) (antibody, V domains shown)
VH: EVQLVESGGGLIQPGGSLRLSCAASGFTVSSNYMSWVRQAPGKGLEWVSVIYSGGSTYYADSVKGRFTISRDNSKNTLYLQMNSLRAEDTAVYYCAREGPKSITGTAFDIWGQGTIVTVSS
VL: DIQMTQSPSSLSASVGDRVTITCQASQDISNYFNWYQQKPGKAPKLLIYDASNLETGVPSRFSGSGSGTDFTFTISSLQPEDIATYYCQQYDNLPMYTFGQGTKLEIK
Molecule B5 came in with a Kd in assay [1] of 50.8 nM. Besides, the other in assay [2] is 81.8%.

B6: P5A-1B8 (full-length IgG) (antibody, V domains shown)
VH: EVQLVESGGGLIQPGGSLRLSCAASGFTVSSNYMSWVRQAPGKGLEWVSVIYPGGSTFYADSVKGRFTISRDNSKNTLYLQMNSLRAEDTAVYYCARETLAFDYWGQGTLVTVSS
VL: DIQLTQSPSFLSASVGDRVTITCRASQGISSYLAWYQQKPGKAPKLLIYAASTLQSGVPSRFSGSGSGTEFTLTISSLQPEDFATYYCQQLNSYPPAFGGGTKVEIK
Molecule B6 came in with a Kd in assay [1] of 1.09 nM. The other in assay [2] is 79.6%.

B7: P5A-2F11 (full-length IgG) (antibody, V domains shown)
VH: QVQLVQSGAEVKKPGASVKVSCKASGYTFTSYDINWVRQATGQGLEWMGWMNPNSGNTGYAQKFQGRVTMTRNTSISTAYMELSSLRSEDTAVYYCARYIVVVPAAKGFDPWGQGTLVTVSS
VL: not shown
With B7, in assay [1], binding was characterised by a dissociation constant (Kd) of 5.33 nM. Besides, the other in assay [2] worked out at 56.2%.

B8: P5A-2G7 (full-length IgG) (antibody, V domains shown)
VH: QVQLQESGPGLVKPSETLSLTCTVSGDSVSSGSYYWSWIRQPPGKGLEWIGYIYYSGSTNYNPSLKSRVTISVDTSKNQFSLKLSSVTAADTAVYYCARERCYYGSGRAPRCVWFDPWGQGTLVTVSS
VL: QSALTQPASVSGSPGQSITISCTGTSSDVGGYNYVSWYQQHPGKAPKLMIYDVSNRPSGVSNRFSGSKSGNTASLTISGLQAEDEADYYCSSYTSSSTLVVFGGGTKLTVL
In the case of B8, the Kd in assay [1] is 3.55 nM. For the same molecule, in assay [2], the other came to 57.2%.

B9: P5A-3C12 (full-length IgG) (antibody, V domains shown)
VH: QITLKESGPTLVKPTQTLTLTCTFSGFSLSTSGVGVGWIRQPPGKALEWLALIYWDDDKRYSPSLKSRLTITKDTSKNQVVLTMTNMDPVDTATYYCAHSLFLTVGYSSSWSPFDYWGQGTLVTVSS
VL: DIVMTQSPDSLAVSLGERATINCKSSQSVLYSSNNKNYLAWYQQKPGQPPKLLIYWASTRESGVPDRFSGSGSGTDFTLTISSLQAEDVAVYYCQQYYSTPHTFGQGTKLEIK
In assay [1], B9 gave a Kd of 1.03 nM. The other in assay [2] stood at 54.5%.
